Test results reported in paper PMC10876425.

Legend:
[1] = target: Light-harvesting 2 (LH2) complex from Rhodobacter sphaeroides (Rhodobacter sphaeroides); experiment: FRET or BRET; fluorescence lifetime microscopy (TCSPC) of LH2 emission at 857 ± 3 nm after excitation at 485 nm; intact DOPC proteoliposomes (LH2 only, 2:1, 1:1, 0.5:1 LH2:RC-LH1); E = 1 - τDA/τD; values are averages for the whole system
[2] = target: Reaction-centre light-harvesting 1 (RC-LH1) complex from Rhodobacter sphaeroides, carotenoid-less (from the ΔcrtB strain) (Rhodobacter sphaeroides) (UniProt P0C0Y8); experiment: as above

Substance: Light-harvesting 2 (LH2) complex from Rhodobacter sphaeroides
- LH2 fluorescence lifetime in LH2-only proteoliposomes [1]: 0.72 ns
- LH2 fluorescence lifetime in proteoliposomes (0.5:1 LH2:RC-LH1) [2]: 0.37 ns
- LH2 fluorescence lifetime in proteoliposomes (1:1 LH2:RC-LH1) [2]: 0.35 ns
- LH2 fluorescence lifetime in proteoliposomes (2:1 LH2:RC-LH1) [2]: 0.43 ns
- LH2→RC-LH1 energy transfer efficiency (0.5:1 LH2:RC-LH1) [2]: 49%
- LH2→RC-LH1 energy transfer efficiency (1:1 LH2:RC-LH1) [2]: 51%
- LH2→RC-LH1 energy transfer efficiency (2:1 LH2:RC-LH1) [2]: 40%
